The values that follow come from paper PMC12311017.

This test deals with USP1/UAF1 (USP1 res. 21-785, G670A + G671A, with UAF1 res. 9-677) (UniProt O94782). The experiment in a line: global kinetic model.
UniProt O94782, sequence (O94782 21-785 G670A/G671A, chain 1 of 2): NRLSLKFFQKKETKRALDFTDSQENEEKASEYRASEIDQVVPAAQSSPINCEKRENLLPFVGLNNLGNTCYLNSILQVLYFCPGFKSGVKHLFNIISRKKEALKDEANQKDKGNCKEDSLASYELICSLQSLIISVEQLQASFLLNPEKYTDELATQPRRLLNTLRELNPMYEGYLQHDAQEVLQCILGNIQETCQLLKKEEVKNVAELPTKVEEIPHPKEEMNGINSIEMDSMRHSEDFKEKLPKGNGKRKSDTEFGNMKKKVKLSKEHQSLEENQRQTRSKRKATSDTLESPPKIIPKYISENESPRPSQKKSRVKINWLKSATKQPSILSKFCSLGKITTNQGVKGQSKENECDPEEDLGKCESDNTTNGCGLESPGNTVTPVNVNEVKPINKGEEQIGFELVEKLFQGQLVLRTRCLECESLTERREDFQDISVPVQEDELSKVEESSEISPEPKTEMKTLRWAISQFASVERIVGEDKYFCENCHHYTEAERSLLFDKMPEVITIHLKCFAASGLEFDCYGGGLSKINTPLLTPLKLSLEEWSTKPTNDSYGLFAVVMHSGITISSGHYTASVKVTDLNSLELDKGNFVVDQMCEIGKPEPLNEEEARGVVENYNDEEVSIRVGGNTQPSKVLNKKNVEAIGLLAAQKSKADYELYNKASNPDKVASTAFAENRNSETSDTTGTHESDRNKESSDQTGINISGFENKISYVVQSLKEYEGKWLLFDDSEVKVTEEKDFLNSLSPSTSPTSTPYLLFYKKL
UniProt O94782, sequence (Q8TAF3 9-677, chain 2 of 2, further chain): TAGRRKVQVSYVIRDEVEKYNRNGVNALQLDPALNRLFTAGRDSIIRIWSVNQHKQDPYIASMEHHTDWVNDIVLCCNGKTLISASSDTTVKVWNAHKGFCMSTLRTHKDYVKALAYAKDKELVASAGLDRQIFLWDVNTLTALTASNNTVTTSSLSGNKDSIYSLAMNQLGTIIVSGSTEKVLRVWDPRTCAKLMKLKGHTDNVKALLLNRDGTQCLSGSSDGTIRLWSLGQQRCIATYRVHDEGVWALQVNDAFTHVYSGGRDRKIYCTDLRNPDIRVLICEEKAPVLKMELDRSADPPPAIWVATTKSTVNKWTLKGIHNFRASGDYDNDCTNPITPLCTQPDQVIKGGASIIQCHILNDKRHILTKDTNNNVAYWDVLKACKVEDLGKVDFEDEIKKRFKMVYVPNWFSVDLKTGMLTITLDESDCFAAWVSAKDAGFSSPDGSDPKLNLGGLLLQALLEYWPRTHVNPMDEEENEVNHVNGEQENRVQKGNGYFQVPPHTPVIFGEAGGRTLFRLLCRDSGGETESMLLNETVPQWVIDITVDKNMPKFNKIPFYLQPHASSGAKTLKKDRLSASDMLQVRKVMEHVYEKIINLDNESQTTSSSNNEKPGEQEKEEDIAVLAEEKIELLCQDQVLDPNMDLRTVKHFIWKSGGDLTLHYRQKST

Broadly, the koff is the rate constant with which the complex falls apart. As for “K63-linked diubiquitinated PCNA (from UniProt P12004 1-261; P0CG47 1-76; P0CG47 1-76) (complex)”, the koff is 1240 s⁻¹.
